From paper PMC4457421 come the findings set out here.

This assay deals with Bacteriorhodopsin from Halobium salinarum expressed in E. coli (Halobium salinarum) (UniProt P02945). Briefly: crystal structure; in meso nanovolume crystallisation in monooleoyl-based lipid mesophase, protein 20 mg/ml, 1.5M Na/K-Pi pH 5.6, 22°C; space group C2, three monomers in the asymmetric unit; 1.9 Å.

As to “Bacteriorhodopsin from Halobium salinarum expressed in E. coli (from UniProt P02945 14-262) (natural protein)”, the stoichiometry N was 3.

Broadly, the stoichiometry N is a count of units in the complex or per binding partner.
